Measurements published in patent publication US20230082465A1 (Hoffmann-La Roche, published 2023).

How the values were obtained:
Fragment E = target: T1, Fragment E (human, UniProt P02671 20-97; P02675 84-152; P02679 27-79, limits assumed); test: BLI Octet, Example 4, FIG. 5
T1 construct: domain: Fragment E
T1 sequence (looked up) 1: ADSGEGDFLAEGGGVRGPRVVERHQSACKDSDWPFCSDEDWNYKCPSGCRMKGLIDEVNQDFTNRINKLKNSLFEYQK
T1 sequence (looked up) 2: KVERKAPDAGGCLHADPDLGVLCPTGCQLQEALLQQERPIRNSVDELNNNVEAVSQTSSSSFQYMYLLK
T1 sequence (looked up) 3: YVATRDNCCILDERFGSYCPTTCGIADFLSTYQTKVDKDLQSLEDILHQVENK

[1] = target: T2, Fragment E from fibrinogen (UniProt P02671 20-97; P02675 84-152; P02679 27-79, limits assumed); test: BLI Octet Red96e, biotinylated antibody on streptavidin tips
T2 construct: domain: Fragment E from fibrinogen; also called E (Fibrinogen)
T2 sequence (looked up) 1: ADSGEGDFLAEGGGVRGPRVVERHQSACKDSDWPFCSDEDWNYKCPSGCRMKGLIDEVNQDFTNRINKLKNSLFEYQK
T2 sequence (looked up) 2: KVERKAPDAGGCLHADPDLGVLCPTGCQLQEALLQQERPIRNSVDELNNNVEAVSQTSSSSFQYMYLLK
T2 sequence (looked up) 3: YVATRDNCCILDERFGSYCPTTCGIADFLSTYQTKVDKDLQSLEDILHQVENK

Fragment E from fibrin = target: T3, Fragment E from fibrin (UniProt P02671 36-97; P02675 84-152; P02679 27-88, limits assumed); test: as above
T3 construct: domain: Fragment E from fibrin; also called E (Fibrin)
T3 sequence (looked up) 1: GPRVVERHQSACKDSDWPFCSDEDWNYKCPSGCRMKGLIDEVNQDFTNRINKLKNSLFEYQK
T3 sequence (looked up) 2: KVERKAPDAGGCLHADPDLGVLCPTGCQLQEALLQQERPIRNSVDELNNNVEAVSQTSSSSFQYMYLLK
T3 sequence (looked up) 3: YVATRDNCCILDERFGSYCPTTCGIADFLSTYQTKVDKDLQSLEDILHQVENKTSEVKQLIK

Fibrinogen Fragment D = target: T4, Fibrinogen Fragment D (human, UniProt P02671 124-216; P02675 164-491; P02679 89-437, limits assumed); test: BLI Octet Red96e, biotinylated antibody on streptavidin tips; KD grade + = >=10^-8 M
T4 construct: domain: Fibrinogen Fragment D; Made in-house by digesting purified human fibrinogen with plasmin, then purified by SEC; also called fragment D from fibrinogen; D (Fibrinogen)
T4 sequence (looked up) 1: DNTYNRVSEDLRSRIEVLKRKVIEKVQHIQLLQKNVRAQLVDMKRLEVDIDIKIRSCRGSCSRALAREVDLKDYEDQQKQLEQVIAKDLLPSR
T4 sequence (looked up) 2: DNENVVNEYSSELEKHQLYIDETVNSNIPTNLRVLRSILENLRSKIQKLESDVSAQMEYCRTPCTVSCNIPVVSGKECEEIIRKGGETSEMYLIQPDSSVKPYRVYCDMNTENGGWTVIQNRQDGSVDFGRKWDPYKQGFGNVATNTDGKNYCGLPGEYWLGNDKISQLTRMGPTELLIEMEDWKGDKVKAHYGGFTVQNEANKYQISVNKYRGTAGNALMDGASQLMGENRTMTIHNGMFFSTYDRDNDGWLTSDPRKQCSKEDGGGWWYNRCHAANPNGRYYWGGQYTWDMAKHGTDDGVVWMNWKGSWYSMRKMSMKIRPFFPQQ
T4 sequence (looked up) 3: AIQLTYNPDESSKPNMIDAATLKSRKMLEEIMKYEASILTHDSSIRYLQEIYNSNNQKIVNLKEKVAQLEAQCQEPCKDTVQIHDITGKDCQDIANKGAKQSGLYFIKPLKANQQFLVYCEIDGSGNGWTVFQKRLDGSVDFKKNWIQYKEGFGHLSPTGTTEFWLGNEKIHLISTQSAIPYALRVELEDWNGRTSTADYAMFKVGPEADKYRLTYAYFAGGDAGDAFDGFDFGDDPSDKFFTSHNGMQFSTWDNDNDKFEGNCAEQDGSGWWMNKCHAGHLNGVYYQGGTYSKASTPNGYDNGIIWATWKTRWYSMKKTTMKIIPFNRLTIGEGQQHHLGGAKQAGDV
Description: (§1) The same set of mAbs were subjected to binding studies with fibrinogen, D-Dimer, and purified fibrin and fibrinogen fragments (see Table 2) using the BLI Octet Red96e system from Sartorius. KD was measured by loading biotinylated antibody samples on streptavidin BLI tips and introducing serial dilutions of prepared fragments. […] The experiments were conducted at room temperature and pressure.

Fibrinogen Fragment X = target: T5, Fibrinogen Fragment X (human, UniProt P02671 20-238; P02675 73-491; P02679 27-437, limits assumed); test: as above
T5 construct: domain: Fibrinogen Fragment X; Made in-house by digesting purified human fibrinogen with plasmin, then purified by SEC; also called X (Fibrinogen)
T5 sequence (looked up) 1: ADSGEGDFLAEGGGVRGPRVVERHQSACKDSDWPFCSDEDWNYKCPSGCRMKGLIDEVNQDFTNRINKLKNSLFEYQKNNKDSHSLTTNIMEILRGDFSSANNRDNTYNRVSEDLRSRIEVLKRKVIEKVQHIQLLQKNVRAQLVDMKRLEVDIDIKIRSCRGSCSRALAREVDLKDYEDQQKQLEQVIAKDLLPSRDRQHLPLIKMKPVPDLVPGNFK
T5 sequence (looked up) 2: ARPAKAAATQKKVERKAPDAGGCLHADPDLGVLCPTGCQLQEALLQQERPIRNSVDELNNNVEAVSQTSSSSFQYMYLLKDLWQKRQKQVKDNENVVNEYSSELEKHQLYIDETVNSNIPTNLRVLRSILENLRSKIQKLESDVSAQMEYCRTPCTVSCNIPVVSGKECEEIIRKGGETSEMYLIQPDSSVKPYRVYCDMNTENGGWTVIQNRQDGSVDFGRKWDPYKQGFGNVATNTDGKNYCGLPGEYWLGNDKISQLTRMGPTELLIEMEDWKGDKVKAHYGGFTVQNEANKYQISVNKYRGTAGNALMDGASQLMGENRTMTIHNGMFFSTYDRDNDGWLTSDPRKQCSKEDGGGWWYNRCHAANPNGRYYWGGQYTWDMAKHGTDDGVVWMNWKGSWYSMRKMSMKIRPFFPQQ
T5 sequence (looked up) 3: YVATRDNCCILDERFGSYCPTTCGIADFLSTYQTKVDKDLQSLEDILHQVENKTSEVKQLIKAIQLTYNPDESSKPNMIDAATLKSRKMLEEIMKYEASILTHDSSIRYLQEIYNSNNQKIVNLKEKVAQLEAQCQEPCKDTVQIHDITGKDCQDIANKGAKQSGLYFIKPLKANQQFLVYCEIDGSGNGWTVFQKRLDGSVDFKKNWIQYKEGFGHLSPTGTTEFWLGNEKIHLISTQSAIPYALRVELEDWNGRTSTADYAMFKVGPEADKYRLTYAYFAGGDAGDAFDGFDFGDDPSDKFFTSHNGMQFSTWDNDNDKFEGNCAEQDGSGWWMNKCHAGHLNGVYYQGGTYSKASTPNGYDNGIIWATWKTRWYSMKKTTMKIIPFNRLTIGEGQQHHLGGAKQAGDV
Description: as §1

Fibrinogen Fragment Y = target: T6, Fibrinogen Fragment Y (human, UniProt P02671 20-225; P02675 73-491; P02679 27-437, limits assumed); test: as above
T6 construct: domain: Fibrinogen Fragment Y; Made in-house by digesting purified human fibrinogen with plasmin, then purified by SEC; also called Y (Fibrinogen)
T6 sequence (looked up) 1: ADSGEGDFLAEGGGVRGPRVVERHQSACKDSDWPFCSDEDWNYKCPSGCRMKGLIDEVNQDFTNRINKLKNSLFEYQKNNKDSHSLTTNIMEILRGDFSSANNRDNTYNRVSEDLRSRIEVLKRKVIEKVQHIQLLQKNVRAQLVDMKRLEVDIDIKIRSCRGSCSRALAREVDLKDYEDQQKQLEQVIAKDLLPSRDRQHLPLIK
T6 sequence (looked up) 2: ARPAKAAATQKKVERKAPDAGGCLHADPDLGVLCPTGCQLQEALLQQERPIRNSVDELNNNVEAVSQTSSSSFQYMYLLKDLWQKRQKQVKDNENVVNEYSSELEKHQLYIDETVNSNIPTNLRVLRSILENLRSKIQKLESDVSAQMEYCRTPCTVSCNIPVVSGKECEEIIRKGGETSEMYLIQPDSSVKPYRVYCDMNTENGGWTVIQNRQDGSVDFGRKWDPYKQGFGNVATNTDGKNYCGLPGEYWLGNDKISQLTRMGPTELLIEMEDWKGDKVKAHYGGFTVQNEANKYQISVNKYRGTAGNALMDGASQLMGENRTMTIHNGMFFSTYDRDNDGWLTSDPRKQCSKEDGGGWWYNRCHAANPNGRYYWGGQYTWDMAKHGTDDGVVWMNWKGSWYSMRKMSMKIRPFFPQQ
T6 sequence (looked up) 3: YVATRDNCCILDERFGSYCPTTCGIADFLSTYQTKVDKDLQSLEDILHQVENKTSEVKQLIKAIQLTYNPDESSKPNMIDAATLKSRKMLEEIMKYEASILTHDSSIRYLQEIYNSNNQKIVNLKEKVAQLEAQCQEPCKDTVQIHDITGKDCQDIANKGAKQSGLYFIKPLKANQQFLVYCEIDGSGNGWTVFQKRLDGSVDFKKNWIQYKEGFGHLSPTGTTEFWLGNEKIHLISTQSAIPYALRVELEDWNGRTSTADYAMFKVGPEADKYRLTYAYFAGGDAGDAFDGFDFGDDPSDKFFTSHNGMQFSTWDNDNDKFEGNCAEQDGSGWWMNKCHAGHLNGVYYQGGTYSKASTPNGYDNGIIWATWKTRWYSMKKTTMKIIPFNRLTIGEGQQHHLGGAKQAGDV
Description: as §1

B1: recombinant antibody #12 (antibody, V domains shown)
VH: QVQLQQPGAEVVRPGASVKLSCKASGYSFTSYWIHWLKQGPHQGLEWIGRIDPDDSETHYNQKFKDKALLTVDKSSSTAYMQLRSLTSEDSAVYYCARTNWDAWFAYWGQGTLVTVSA
VL: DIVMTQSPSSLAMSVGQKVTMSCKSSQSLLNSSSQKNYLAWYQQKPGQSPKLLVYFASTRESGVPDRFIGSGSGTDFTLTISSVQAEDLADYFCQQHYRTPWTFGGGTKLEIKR
notes: The heavy chain is truncated after the murine IgG2a hinge and has no Fc; also called Ab#12; Ab#12 (Grifols)
no binding: binding result (Fragment E) | binding result [1] | binding result (Fragment E from fibrin)
≥ 0.01 µM: KD (Fibrinogen Fragment D) | KD (Fibrinogen Fragment X) | KD (Fibrinogen Fragment Y)
